Reference: the supplement of paper PMC10724198
± gives the standard deviation of the averaged measurements.

System: Saccharomyces cerevisiae
Assay: protein stability index of tFT-peptide fusion (C-terminal peptide) (PSI (0-1 scale)); higher = more stable (slower turnover)
Conditions: temperature: 30 C
Description: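 MPS profiling in S. cerevisiae of the yeast C-terminome library: the last 12 aa of each annotated ORF are fused to the C-terminus of a sfGFP-mCherry timer, after a GGGS linker. Cells are FACS-sorted into 8 mCherry/sfGFP bins and deep-sequenced. PSI runs from 0 (unstable) to 1 (stable); wild type and das1Δ backgrounds, two technical replicates each.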

[1] = genetic background: das1 deletion

LSAIVFLGTSSH [AVT5 C-terminal 12 aa] showed a protein stability index [1] of 0.7155 ± 0.0055 and a protein stability index (genetic background: wild type) of 0.704 ± 0.021.
“ITSQDILASTDY [YHL009W-B C-terminal 12 aa]” gave a protein stability index [1] of 0.688 ± 0.015 and a protein stability index (genetic background: wild type) of 0.711 ± 0.027.
For ELPGVAFLSEKK [PGK1 C-terminal 12 aa], the protein stability index [1] was 0.728 ± 0.016 and the protein stability index (genetic background: wild type) was 0.67 ± 0.0094.
CLGDSIVNLLLI [YGR259C C-terminal 12 aa] gave a protein stability index [1] of 0.677 ± 0.011 and a protein stability index (genetic background: wild type) of 0.3352 ± 0.0027.
TILFMLVLYTIV [YDL241W C-terminal 12 aa] gave a protein stability index [1] of 0.222 ± 0.017 and a protein stability index (genetic background: wild type) of 0.222 ± 0.023.
Work on HGNVFHIESICG [YLL047W C-terminal 12 aa] yielded a protein stability index [1] of 0.655 ± 0.053 and a protein stability index (genetic background: wild type) of 0.737 ± 0.031.
KDVIVDHHSDLN [SAP4 C-terminal 12 aa] gave a protein stability index [1] of 0.706 ± 0.048 and a protein stability index (genetic background: wild type) of 0.701 ± 0.052.
DPTTNGSIIKNE [IXR1 C-terminal 12 aa] showed a protein stability index [1] of 0.6787 ± 0.0023 and a protein stability index (genetic background: wild type) of 0.7014 ± 0.0049.
SGAGARGSSAAA [LYS2 C-terminal 12 aa] gave a protein stability index [1] of 0.702 ± 0.011 and a protein stability index (genetic background: wild type) of 0.676 ± 0.032.
LLCRDSSREVGE [YBL113C C-terminal 12 aa] gave a protein stability index [1] of 0.702 ± 0.022 and a protein stability index (genetic background: wild type) of 0.673 ± 0.014.
With SFNEVVKEVQAL [NHP2 C-terminal 12 aa] the protein stability index [1] was 0.687 ± 0.017 and the protein stability index (genetic background: wild type) was 0.692 ± 0.019.
LLRNGDIDTITK [COG3 C-terminal 12 aa] showed a protein stability index [1] of 0.7045 ± 0.0048 and a protein stability index (genetic background: wild type) of 0.68 ± 0.016.
Sequence DSTMKIWSPGYQ [STE4 C-terminal 12 aa] has a protein stability index [1] of 0.7158 ± 0.00073 and a protein stability index (genetic background: wild type) of 0.728 ± 0.011.
Work on ISDNVPKEAIIM [PSA1 C-terminal 12 aa] yielded a protein stability index [1] of 0.686 ± 0.023 and a protein stability index (genetic background: wild type) of 0.631 ± 0.034.
Work on KFETPGEYKKRI [LCL3 C-terminal 12 aa] yielded a protein stability index [1] of 0.697 ± 0.029 and a protein stability index (genetic background: wild type) of 0.712 ± 0.019.
With LEDEDVVTILKK [RBG1 C-terminal 12 aa] the protein stability index [1] was 0.705 ± 0.021 and the protein stability index (genetic background: wild type) was 0.707 ± 0.0083.
SKKTTISAKKQQ [SGE1 C-terminal 12 aa] showed a protein stability index [1] of 0.713 ± 0.014 and a protein stability index (genetic background: wild type) of 0.51092 ± 0.00037.
Sequence SQAGLMSNEEVL [CCC2 C-terminal 12 aa] has a protein stability index [1] of 0.69664 ± 0.00011 and a protein stability index (genetic background: wild type) of 0.699 ± 0.022.
NEPTNSDIVELD [UBA2 C-terminal 12 aa] showed a protein stability index [1] of 0.693 ± 0.023 and a protein stability index (genetic background: wild type) of 0.676 ± 0.019.
For CTKHRFGYQNWI [ARP6 C-terminal 12 aa], the protein stability index [1] was 0.692 ± 0.0049 and the protein stability index (genetic background: wild type) was 0.692 ± 0.012.
Work on FEVDVDSLFKLY [MET1 C-terminal 12 aa] yielded a protein stability index [1] of 0.707 ± 0.018 and a protein stability index (genetic background: wild type) of 0.442 ± 0.0068.
Sequence RRAAIHPYFQES [CDC28 C-terminal 12 aa] has a protein stability index [1] of 0.729 ± 0.013 and a protein stability index (genetic background: wild type) of 0.687 ± 0.015.
Sequence DKKKKKSKCVIL [RHO5 C-terminal 12 aa] has a protein stability index [1] of 0.753 ± 0.0091 and a protein stability index (genetic background: wild type) of 0.74 ± 0.014.
KLRREDEIIVYA [REC8 C-terminal 12 aa] showed a protein stability index [1] of 0.6145 ± 0.0033 and a protein stability index (genetic background: wild type) of 0.644 ± 0.0052.
For QCNFSYLESNYF [CTS1 C-terminal 12 aa], the protein stability index [1] was 0.689 ± 0.019 and the protein stability index (genetic background: wild type) was 0.749 ± 0.06.
Sequence SNNPKLHHAKEA [MEP3 C-terminal 12 aa] has a protein stability index [1] of 0.696 ± 0.041 and a protein stability index (genetic background: wild type) of 0.375 ± 0.013.
For YAGENFHHGDKL [ENO2 C-terminal 12 aa], the protein stability index [1] was 0.6954 ± 0.003 and the protein stability index (genetic background: wild type) was 0.749 ± 0.034.
Work on CLREFMNGQRYI [DIA4 C-terminal 12 aa] yielded a protein stability index [1] of 0.7021 ± 0.0027 and a protein stability index (genetic background: wild type) of 0.68 ± 0.034.
“DFIRGVAVFMHI [YMR272W-A C-terminal 12 aa]” showed a protein stability index [1] of 0.691 ± 0.02 and a protein stability index (genetic background: wild type) of 0.66587 ± 0.00052.
Work on LASALKELQDAA [YHR112C C-terminal 12 aa] yielded a protein stability index [1] of 0.691 ± 0.0097 and a protein stability index (genetic background: wild type) of 0.682 ± 0.031.
For KNKTKQNQAQSW [LTO1 C-terminal 12 aa], the protein stability index [1] was 0.704 ± 0.012 and the protein stability index (genetic background: wild type) was 0.679 ± 0.017.
With VVEALRDAVGDV [NBP35 C-terminal 12 aa] the protein stability index [1] was 0.706 ± 0.014 and the protein stability index (genetic background: wild type) was 0.696 ± 0.02.
In the case of VDFIKEFAEKNA [SER1 C-terminal 12 aa], the protein stability index [1] is reported as 0.708 ± 0.011 and the protein stability index (genetic background: wild type) is reported as 0.706 ± 0.014.
EALGKGGRGKRY [LSO1 C-terminal 12 aa] gave a protein stability index [1] of 0.671 ± 0.013 and a protein stability index (genetic background: wild type) of 0.678 ± 0.019.
Work on LLMVSVVNFVPL [YPL182C C-terminal 12 aa] yielded a protein stability index [1] of 0.474 ± 0.034 and a protein stability index (genetic background: wild type) of 0.479 ± 0.0093.
In the case of KKKKNASTCTIL [RSR1 C-terminal 12 aa], the protein stability index [1] is reported as 0.7494 ± 0.0014 and the protein stability index (genetic background: wild type) is reported as 0.711 ± 0.03.
With QFDSENVILSVI [TRS120 C-terminal 12 aa] the protein stability index [1] was 0.716 ± 0.023 and the protein stability index (genetic background: wild type) was 0.687 ± 0.024.
QRASSRPKERRK [MSB4 C-terminal 12 aa] was tested, and the protein stability index [1] was 0.711 ± 0.019 and the protein stability index (genetic background: wild type) was 0.713 ± 0.016.
MGSSRRTSLDFF [YBR071W C-terminal 12 aa] showed a protein stability index [1] of 0.7242 ± 0.0015 and a protein stability index (genetic background: wild type) of 0.693 ± 0.025.
Work on LPQRSIPCAIYP [YCR108C C-terminal 12 aa] yielded a protein stability index [1] of 0.687 ± 0.012 and a protein stability index (genetic background: wild type) of 0.7045 ± 0.0036.
Sequence EEWYTSNHDSLA [PRP18 C-terminal 12 aa] has a protein stability index [1] of 0.723 ± 0.013 and a protein stability index (genetic background: wild type) of 0.698 ± 0.014.
